In one assay the test system is EGFR and HER2. Put plainly: Western blotting of tumor homogenates: EGFR and HER2. As to conditions: 24 h after the final dose. It counts as in vivo, mouse. Here is the method: To prepare whole cell lysates, cells were washed with PBS twice, mixed with 1× cell lysis buffer from Cell Signaling Technology supplemented with 2 mM PMSF and a protease inhibitor cocktail from Roche Applied Science, placed on ice for 10 min, sonicated at 0-4° C. to enhance cell lysis using a Branson Model 450 sonifier, and finally centrifuged at 13,000 g for 10 min at 4° C., and the supernatant fraction is collected as whole cell lysate. […]
Protein concentrations in all samples were measured using the BCA Assay Kit. […] Proteins were transferred to polyvinylidene fluoride membrane, probed with specific antibodies, and detected using either Luminata Classico (Millipore) or Luminata Cresendo (Millipore). […] The beads were washed three times with IP buffer, suspended in 2× SDS loading buffer, boiled for 5 min, and analyzed by Western blotting.
SCID mice (C.B.17 SCID) were bred by the Laboratory Animal Shared Resource at Roswell Park Comprehensive Cancer Center. […] Subcutaneous tumor volume was measured using length ×width^2÷2. Tumor volume was measured three times each week. Orthotopic tumor growth was monitored by bioluminescence weekly. Mice were given D-luciferin (150 mg/kg) by ip and anesthetized with isoflurane, and tumor burden was measured by bioluminescence using the IVIS Spectrum In Vivo Imaging System (PerkinElmer). Drug treatment was started when significant tumor growth was detected. […]
For orientation: In western blotting, separated proteins are transferred to a membrane and probed.

The test system of the next assay is RAS. Put plainly: RAS activity assay (Ras Activation ELISA) in cell lysates. As to conditions: 25 nM, 48 h. The class given is cell-based, human. Here is the method:
Ras activity in cell lysates was measured using a Ras Activation ELISA Kit from Cell Biolabs. Briefly, approximately 5×10^6 cells were mixed with 0.5 ml lysis buffer. Cell lysates were cleared by centrifugation at 14,000 g for 10 min at 4° C., and 250 μl per sample was mixed with 10 μl of 0.5 M EDTA with or without 5 μl of either 100× GTPγS or 100× GDP, which was incubated at 37° C. for 30 min with agitation and then mixed with 33 μl of 1 M MgCl2. The mixture after appropriate dilution was transferred at 100 μl per sample to a well in a 96-well plate immobilized with RAF-1 RAS-binding domain and incubated for 1 h at RT. After washing the wells 5 times with wash buffer, 100 μl of an anti-pan-RAS antibody was added to each well and incubated for 1 h at RT. After another round of wash, 100 μl of a secondary antibody-HRP conjugate was added to each well and incubated for 1 h at RT. After yet another round of wash, 100 μl of substrate solution was added to each well and incubated at RT for 20 min, followed by addition of 100 μl of stop solution to each well. Absorbance at 450 nm in each well was recorded by a Synergy 2 Multi-Mode Microplate Reader.
(ELISA stands for enzyme-linked immunosorbent assay.)

B1: PEPD^G278D: recombinant and enzymatically inactive mutant of human peptidase D (PEPD), with replacement of glycine 278 by aspartic acid (protein)
chain: AAATGPSFWLGNETLKVPLALFALNRQRLCERLRKNPAVQAGSIVVLQGGEETQRYCTDTGVLFLQESFFHWAFGVTEPGCYGVIDVDTGKSTLFVPRLPASHATWMGKIHSKEHFKEKYAVDDVQYVDEIASVLTSQKPSVLLTLRGVNTDSGSVCREASFDGISKFEVNNTILHPEIVESRVFKTDMELEVLRYTNKISSEAHREVMKAVKVGMKEYGLESLFEHYCYSRGGMRHSSYTCICGSGENSAVLHYGHAGAPNDRTIQNGDMCLFDMDGEYYSVASDITCSFPRNGKFTADQKAVYEAVLLSSRAVMGAMKPGDWWPDIDRLADRIHLEELAHMGILSGSVDAMVQAHLGAVFMPHGLGHFLGIDVHDVGGYPEGVERIDEPGLRSLRTARHLQPGMVLTVEPGIYFIDHLLDEALADPARASFLNREVLQRFRGFGGVRIEEDVVVIDSGIELLTCVPRTVEEIEACMAGCDKAFTPFSGPK
modifications: left off: small tags and cut ends
As to B1, the “effect on EGFR, HER2 and ERK in tumors” value with EGFR and HER2 (HCT116 and HT29 tumors) was “neither PEPD^G278D nor cetuximab had any effect”. Further, the “expression and phosphorylation of EGFR and HER2 in tumors” value with EGFR and HER2 (SW48 tumors) was “decreased the expression and phosphorylation of both EGFR and HER2”. Moreover, the results for the “inhibition of RAS activity” value with RAS (HCT116 cells), with RAS (HT29 cells) and in the assay on RAS (SW48 cells) were 73%, 75% and 75%, respectively.

(Values after patent US20250009852A1, “DEPLETING EGFR AND HER2 OVERCOMES RESISTANCE TO EGFR INHIBITORS IN COLORECTAL CANCER” (Health Research, Inc., priority 2021, published 2025).)
